Results taken from patent US20230039976A1.

What was measured:
[1] = molecular target: programmed cell death protein 1 (PD-1) on tumor infiltrating lymphocytes (human) (UniProt Q15116); experiment: flow cytometry of head and neck tumor digest H3046; EH12.2H7 staining; percent of CD3+ cells stained
[2] = molecular target: programmed cell death protein 1 (PD-1) on tumor infiltrating lymphocytes (human) (UniProt Q15116); experiment: flow cytometry of melanoma tumor digest M1156; EH12.2H7 staining; percent of CD3+ cells stained
[3] = molecular target: programmed cell death protein 1 (PD-1) on tumor infiltrating lymphocytes (human) (UniProt Q15116); experiment: flow cytometry of ovarian tumor digest OV8074; EH12.2H7 staining; percent of CD3+ cells stained

Sequence of UniProt Q15116 (Q15116 25-288): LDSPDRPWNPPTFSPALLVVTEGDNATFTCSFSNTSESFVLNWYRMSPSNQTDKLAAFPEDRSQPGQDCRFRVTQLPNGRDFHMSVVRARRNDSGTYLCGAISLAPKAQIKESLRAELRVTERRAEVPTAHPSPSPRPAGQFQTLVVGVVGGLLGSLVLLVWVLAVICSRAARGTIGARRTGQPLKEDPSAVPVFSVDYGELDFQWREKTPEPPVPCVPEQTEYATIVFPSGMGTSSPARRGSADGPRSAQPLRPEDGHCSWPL

B1: anti-PD-1 antibody clone EH12.2H7 (BioLegend, Cat #329906) (antibody, from another filing, V domains shown)
VH: QVQLQQSGAELAKPGASVQMSCKASGYSFTSSWIHWVKQRPGQGLEWIGYIYPSTGFTEYNQKFKDKATLTADKSSSTAYMQLSSLTSEDSAVYYCARWRDSSGYHAMDYWGQGTSVTVSS
VL: DIVLTQSPASLTVSLGQRATISCRASQSVSTSGYSYMHWYQQKPGQPPKLLIKFGSNLESGIPARFSGSGSGTDFTLNIHPVEEEDTATYYCQHSWEIPYTFGGGTKLEIK
Which Pre-sort % PD-1+ (of CD3+) [1] does the source give for B1 here?
The Pre-sort % PD-1+ (of CD3+) was 13%.

What about the Pre-sort % PD-1+ (of CD3+) [2] of the same binder?
Its Pre-sort % PD-1+ (of CD3+) is 93%.

What about the Pre-sort % PD-1+ (of CD3+) [3] of the same binder?
The Pre-sort % PD-1+ (of CD3+) was 70%.
